From paper PMC9427789
Numbering of substitutions follows the chain as printed. Names may count otherwise.

What was measured:
Burosumab (wild type) = assay: indirect ELISA; conditions: read off a plot; for response: chain shown with the change, level of the fitted curve at the highest mAb concentration, log [µg/mL] = 0.5, parent: est. 0.57; for ratio to parent: chain shown with the change;
[1] = molecular target: alanine substitution at H52, R76, F108 residues of FGF23 (three single mutants, as a group) (human); assay: ELISA; indirect ELISA: FGF23 or its mutants coated at 2 µg/mL on Maxisorp plates (4 °C overnight), Burosumab or its variants three-fold serially diluted in PBS from 9 µg/mL, room temperature 2 h, anti-human IgG H&L-HRP, A450; fold change from Kd values against the wild type

B1: mouse FGF23 (wild type), Q9EPC2 T76R (protein)
chain: YPDTSPLLGSNWGSLTHLYTATARTSYHLQIHRDGHVDGTPHQTIYSALMIRSEDAGSVVITGAMTRRFLCMDLHGNIFGSLHFSPENCKFRQWTLENGYDVYLSQKHHYLVSLGRAKRIFQPGTNPPPFSQFLARRNEVPLLHFYTVRPRRHTR
B1 was tested, and the response (Burosumab (wild type)) was 0.78 A450.

B2: mouse FGF23 (wild type), Q9EPC2 Q117H (protein)
chain: B1 chain with R52T, Q93H
B2 gave a response (Burosumab (wild type)) of 0.78 A450.

B3: His-SUMO-FGF23 (N-terminal domain of human FGF23, wild type), Q9GZV9 R48A (protein)
chain: YPNASPLLGSSWGGLIHLYTATAANSYHLQIHKNGHVDGAPHQTIYSALMIRSEDAGFVVITGVMSRRYLCMDFRGNIFGSHYFDPENCRFQHQTLENGYDVYHSPQYHFLVSLGRAKRAFLPGMNPPPYSQFLSRRNEIPLIHFNTPIPRRHTRSAEDDSERDPLNVLKPRARMTPAPA
B3 was tested, and the ratio to parent (Burosumab (wild type)) was 1.

B4: mouse FGF23 (wild type), Q9EPC2 Q117H; A159S (protein)
chain: YPDTSPLLGSNWGSLTHLYTATARTSYHLQIHRDGHVDGTPHQTIYSALMITSEDAGSVVITGAMTRRFLCMDLHGNIFGSLHFSPENCKFRHWTLENGYDVYLSQKHHYLVSLGRAKRIFQPGTNPPPFSQFLSRRNEVPLLHFYTVRPRRHTRSAEDPPERDPLNVLKPRPRATPVPVSCSRELPSAEEGGPAASDPLGVLRRGRGDARGGAGGADRCRPFPRFV
B4 gave a response (Burosumab (wild type)) of 0.8 A450.

B5: His-SUMO-FGF23 (N-terminal domain of human FGF23, wild type), Q9GZV9 E121A (protein)
chain: B3 chain with A24R, E97A
With B5 the ratio to parent (Burosumab (wild type)) was 1.

B6: His-SUMO-FGF23 (N-terminal domain of human FGF23, wild type), Q9GZV9 H52A (protein)
chain: B3 chain with A24R, H28A
Work on B6 yielded a ratio to parent (Burosumab (wild type)) of 9.

B7: His-SUMO-FGF23 (N-terminal domain of human FGF23, wild type), Q9GZV9 F108A (protein)
chain: B3 chain with A24R, F84A
Work on B7 yielded a ratio to parent (Burosumab (wild type)) of 6.2.

B8: His-SUMO-FGF23 (N-terminal domain of human FGF23, wild type), Q9GZV9 Y43A (protein)
chain: B3 chain with Y19A, A24R
Binder B8 has a ratio to parent (Burosumab (wild type)) of 1.7.

B9: His-SUMO-FGF23 (N-terminal domain of human FGF23, wild type), Q9GZV9 R76A (protein)
chain: B3 chain with A24R, R52A
Work on B9 yielded a ratio to parent (Burosumab (wild type)) of 8.2.

B10: His-SUMO-FGF23 (N-terminal domain of human FGF23, wild type), Q9GZV9 F82A (protein)
chain: B3 chain with A24R, F58A
With B10 the ratio to parent (Burosumab (wild type)) was 1.1.

B11: mouse FGF23 (wild type), Q9EPC2 T49N (protein)
chain: B1 chain with T25N, R52T
Work on B11 yielded a response (Burosumab (wild type)) of 0.59 A450.

B12: His-SUMO-FGF23 (N-terminal domain of human FGF23, wild type), Q9GZV9 Y70A (protein)
chain: B3 chain with A24R, Y46A
Work on B12 yielded a ratio to parent (Burosumab (wild type)) of 1.8.

B13: mouse FGF23 (wild type), Q9EPC2 A159S (protein)
chain: B1 chain with R52T, A135S
Work on B13 yielded a response (Burosumab (wild type)) of 0.4 A450.

B14: His-SUMO-FGF23 (N-terminal domain of human FGF23, wild type), Q9GZV9 Y107A (protein)
chain: B3 chain with A24R, Y83A
B14 was tested, and the ratio to parent (Burosumab (wild type)) was 1.4.

B15: His-SUMO-FGF23 (N-terminal domain of human FGF23, wild type), Q9GZV9 H133A (protein)
chain: B3 chain with A24R, H109A
B15 gave a ratio to parent (Burosumab (wild type)) of 2.2.

B16: mouse FGF23 (wild type), Q9EPC2 T49N; T76R; Q117H; A159S (protein)
chain: B4 chain with T25N, T52R
With B16 the response (Burosumab (wild type)) was 0.9 A450.

B17: mouse FGF23 (wild type), Q9EPC2 T49N; Q117H; A159S (protein)
chain: B4 chain with T25N
B17 showed a response (Burosumab (wild type)) of 0.98 A450.

B18: His-SUMO-FGF23 (N-terminal domain of human FGF23, wild type), Q9GZV9 R99A (protein)
chain: B3 chain with A24R, R75A
Binder B18 has a ratio to parent (Burosumab (wild type)) of 1.4.

B19: Burosumab (wild type) (antibody, V domains shown)
VH: QVQLVQSGAEVKKPGASVKVSCKASGYTFTNHYMHWVRQAPGQGLEWMGIINPISGSTSNAQKFQGRVTMTRDTSTSTVYMELSSLRSEDTAVYYCARDIVDAFDFWGQGTMVTVSS
VL: AIQLTQSPSSLSASVGDRVTITCRASQGISSALVWYQQKPGKAPKLLIYDASSLESGVPSRFSGSGSGTDFTLTISSLQPEDFATYYCQQFNDYFTFGPGTKVDIK
B19 was tested, and the fold decrease in binding against wild-type FGF23 [1] was 7 to 10 fold.
